Source: US20180155451A1 (published 2018)

B1: GpH7-A5/GpH7-B3 variant K334_02A/GpL16-k0 (antibody, human IgG1, kappa)
heavy 1: not shown
heavy 2: not shown
light: DIVMTQSPLSLPVTPGEPASISCQASESLVHSNRNTYLHWYLQKPGQSPQLLIYKVSNRFSGVPDRFSGSGSGTDFTLKISRVEAEDVGVYYCSQNTHVPPTFGQGTKVEIERTVAAPSVFIFPPSDEQLKSGTASVVCLLNNFYPREAKVQWKVDNALQSGNSQESVTEQDSKDSTYSLSSTLTLSKADYEKHKVYACEVTHQGLSSPVTKSFNRGEC
notes: heterodimerized antibody, mutation in one H chain only; also called K334_02A He Ab
B2: GpH7-B3 variant Y296_03V/GpL16-k0 (antibody, human IgG1, kappa)
heavy: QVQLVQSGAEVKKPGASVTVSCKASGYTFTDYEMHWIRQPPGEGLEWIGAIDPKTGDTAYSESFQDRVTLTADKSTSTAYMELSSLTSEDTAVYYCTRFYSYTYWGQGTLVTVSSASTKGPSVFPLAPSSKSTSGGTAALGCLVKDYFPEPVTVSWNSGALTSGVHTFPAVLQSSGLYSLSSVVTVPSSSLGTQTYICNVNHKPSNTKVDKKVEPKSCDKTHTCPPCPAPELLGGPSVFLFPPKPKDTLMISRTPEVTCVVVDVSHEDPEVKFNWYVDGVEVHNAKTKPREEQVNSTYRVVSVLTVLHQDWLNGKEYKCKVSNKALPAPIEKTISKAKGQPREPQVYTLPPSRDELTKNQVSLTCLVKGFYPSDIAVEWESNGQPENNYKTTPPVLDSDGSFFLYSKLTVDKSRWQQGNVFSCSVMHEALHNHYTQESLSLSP
light: B1 light
notes: homodimerized antibody, mutation in both H chains; also called Y296_03V Ho Ab
B3: GpH7-B3 variant S324_09D/GpL16-k0 (antibody, human IgG1, kappa)
heavy: not shown
light: B1 light
notes: homodimerized antibody, mutation in both H chains; also called S324_09D Ho Ab
B4: GpH7-B3 variant P271_18N/GpL16-k0 (antibody, human IgG1, kappa)
heavy: not shown
light: B1 light
notes: homodimerized antibody, mutation in both H chains; also called P271_18N Ho Ab
B5: GpH7-B3 variant S267_10E/GpL16-k0 (antibody, human IgG1, kappa)
heavy: not shown
light: B1 light
notes: homodimerized antibody, mutation in both H chains; also called S267_10E Ho Ab
B6: GpH7-B3 variant P271_08L/GpL16-k0 (antibody, human IgG1, kappa)
heavy: not shown
light: B1 light
notes: homodimerized antibody, mutation in both H chains; also called P271_08L Ho Ab
B7: GpH7-B3 variant S324_10E/GpL16-k0 (antibody, human IgG1, kappa)
heavy: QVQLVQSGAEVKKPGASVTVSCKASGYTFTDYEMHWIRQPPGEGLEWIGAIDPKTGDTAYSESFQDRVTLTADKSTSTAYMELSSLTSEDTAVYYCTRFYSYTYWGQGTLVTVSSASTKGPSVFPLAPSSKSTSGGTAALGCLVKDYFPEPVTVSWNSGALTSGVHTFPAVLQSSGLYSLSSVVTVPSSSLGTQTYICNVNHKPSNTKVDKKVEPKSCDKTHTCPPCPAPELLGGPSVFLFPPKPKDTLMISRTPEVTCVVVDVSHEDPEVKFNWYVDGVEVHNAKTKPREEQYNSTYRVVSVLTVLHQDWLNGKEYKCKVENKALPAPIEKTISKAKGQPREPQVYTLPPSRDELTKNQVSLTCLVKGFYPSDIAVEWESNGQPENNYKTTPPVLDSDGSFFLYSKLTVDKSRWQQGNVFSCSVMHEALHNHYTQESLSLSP
light: B1 light
notes: homodimerized antibody, mutation in both H chains; also called S324_10E Ho Ab
B8: GpH7-A5/GpH7-B3 variant K334_16H/GpL16-k0 (antibody, human IgG1, kappa)
heavy 1: not shown
heavy 2: not shown
light: B1 light
notes: heterodimerized antibody, mutation in one H chain only; also called K334_16H He Ab
B9: GpH7-B3 variant Y300_16H/GpL16-k0 (antibody, human IgG1, kappa)
heavy: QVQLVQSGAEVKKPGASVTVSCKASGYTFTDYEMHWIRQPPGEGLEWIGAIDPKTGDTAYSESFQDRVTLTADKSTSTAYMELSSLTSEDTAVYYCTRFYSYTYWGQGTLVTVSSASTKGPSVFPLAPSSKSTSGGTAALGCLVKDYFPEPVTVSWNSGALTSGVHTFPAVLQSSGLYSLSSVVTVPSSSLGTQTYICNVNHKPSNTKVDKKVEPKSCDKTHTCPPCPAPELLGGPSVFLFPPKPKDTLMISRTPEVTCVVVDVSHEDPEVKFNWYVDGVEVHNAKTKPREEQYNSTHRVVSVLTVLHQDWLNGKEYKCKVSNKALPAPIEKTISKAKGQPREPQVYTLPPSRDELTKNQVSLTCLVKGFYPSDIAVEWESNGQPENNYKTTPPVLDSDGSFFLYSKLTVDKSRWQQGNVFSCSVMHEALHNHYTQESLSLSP
light: B1 light
notes: homodimerized antibody, mutation in both H chains; also called Y300_16H Ho Ab
B10: GpH7-B3 variant S267_06M/GpL16-k0 (antibody, human IgG1, kappa)
heavy: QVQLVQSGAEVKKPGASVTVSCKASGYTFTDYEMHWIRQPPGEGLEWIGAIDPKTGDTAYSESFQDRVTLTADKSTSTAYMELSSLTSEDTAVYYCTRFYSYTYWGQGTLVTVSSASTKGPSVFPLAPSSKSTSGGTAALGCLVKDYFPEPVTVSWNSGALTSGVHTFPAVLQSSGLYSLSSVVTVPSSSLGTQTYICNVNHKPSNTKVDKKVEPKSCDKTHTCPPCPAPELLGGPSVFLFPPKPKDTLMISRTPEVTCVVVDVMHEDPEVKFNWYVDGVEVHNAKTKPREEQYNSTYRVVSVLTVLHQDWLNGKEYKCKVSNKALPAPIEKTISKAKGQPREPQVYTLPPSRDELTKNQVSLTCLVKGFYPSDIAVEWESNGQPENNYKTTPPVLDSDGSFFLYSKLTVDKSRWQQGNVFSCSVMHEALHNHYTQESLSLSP
light: B1 light
notes: homodimerized antibody, mutation in both H chains; also called S267_06M Ho Ab
B11: GpH7-B3 variant S337_11K/GpL16-k0 (antibody, human IgG1, kappa)
heavy: not shown
light: B1 light
notes: homodimerized antibody, mutation in both H chains; also called S337_11K Ho Ab
B12: GpH7-A5/GpH7-B3 variant K334_08L/GpL16-k0 (antibody, human IgG1, kappa)
heavy 1: not shown
heavy 2: not shown
light: B1 light
notes: heterodimerized antibody, mutation in one H chain only; also called K334_08L He Ab
B13: GpH7-A5/GpH7-B3 variant I336_15Y/GpL16-k0 (antibody, human IgG1, kappa)
heavy 1: not shown
heavy 2: not shown
light: B1 light
notes: heterodimerized antibody, mutation in one H chain only; also called I336_15Y He Ab
B14: GpH7-A5/GpH7-B3 variant K326_10E/GpL16-k0 (antibody, human IgG1, kappa)
heavy 1: not shown
heavy 2: not shown
light: B1 light
notes: heterodimerized antibody, mutation in one H chain only; also called K326_10E He Ab
B15: GpH7-B3 variant K334_18N/GpL16-k0 (antibody, human IgG1, kappa)
heavy: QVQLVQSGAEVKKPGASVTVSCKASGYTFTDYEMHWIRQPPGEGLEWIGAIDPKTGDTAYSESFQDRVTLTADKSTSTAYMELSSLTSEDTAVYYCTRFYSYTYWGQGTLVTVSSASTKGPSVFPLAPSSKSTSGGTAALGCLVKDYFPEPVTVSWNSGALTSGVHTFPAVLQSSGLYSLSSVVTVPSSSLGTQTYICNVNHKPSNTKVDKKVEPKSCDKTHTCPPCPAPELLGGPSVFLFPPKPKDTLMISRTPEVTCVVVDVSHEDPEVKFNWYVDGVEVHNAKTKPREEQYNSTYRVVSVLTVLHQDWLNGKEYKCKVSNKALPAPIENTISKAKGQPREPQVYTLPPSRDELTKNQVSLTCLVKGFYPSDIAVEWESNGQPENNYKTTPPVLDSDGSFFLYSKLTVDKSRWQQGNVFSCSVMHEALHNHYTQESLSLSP
light: B1 light
notes: homodimerized antibody, mutation in both H chains; also called K334_18N Ho Ab
B16: GpH7-B3 variant S337_14T/GpL16-k0 (antibody, human IgG1, kappa)
heavy: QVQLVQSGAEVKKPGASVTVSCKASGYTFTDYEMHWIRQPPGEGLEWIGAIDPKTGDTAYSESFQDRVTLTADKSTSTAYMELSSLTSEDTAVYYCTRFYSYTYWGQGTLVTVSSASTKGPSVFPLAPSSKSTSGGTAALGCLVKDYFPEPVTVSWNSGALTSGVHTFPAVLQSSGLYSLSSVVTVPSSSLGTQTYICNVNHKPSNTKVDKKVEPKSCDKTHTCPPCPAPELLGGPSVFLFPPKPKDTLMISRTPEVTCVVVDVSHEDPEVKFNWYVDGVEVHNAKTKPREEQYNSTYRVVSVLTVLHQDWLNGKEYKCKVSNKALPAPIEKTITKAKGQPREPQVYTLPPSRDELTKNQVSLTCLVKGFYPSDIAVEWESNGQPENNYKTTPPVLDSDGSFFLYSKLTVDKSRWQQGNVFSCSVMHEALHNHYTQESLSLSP
light: B1 light
notes: homodimerized antibody, mutation in both H chains; also called S337_14T Ho Ab
B17: GpH7-A5/GpH7-B3 variant K326_08L/GpL16-k0 (antibody, human IgG1, kappa)
heavy 1: not shown
heavy 2: not shown
light: B1 light
notes: heterodimerized antibody, mutation in one H chain only; also called K326_08L He Ab
B18: GpH7-A5/GpH7-B3 variant I336_16H/GpL16-k0 (antibody, human IgG1, kappa)
heavy 1: not shown
heavy 2: not shown
light: B1 light
notes: heterodimerized antibody, mutation in one H chain only; also called I336_16H He Ab
B19: GpH7-B3 variant T335_02A/GpL16-k0 (antibody, human IgG1, kappa)
heavy: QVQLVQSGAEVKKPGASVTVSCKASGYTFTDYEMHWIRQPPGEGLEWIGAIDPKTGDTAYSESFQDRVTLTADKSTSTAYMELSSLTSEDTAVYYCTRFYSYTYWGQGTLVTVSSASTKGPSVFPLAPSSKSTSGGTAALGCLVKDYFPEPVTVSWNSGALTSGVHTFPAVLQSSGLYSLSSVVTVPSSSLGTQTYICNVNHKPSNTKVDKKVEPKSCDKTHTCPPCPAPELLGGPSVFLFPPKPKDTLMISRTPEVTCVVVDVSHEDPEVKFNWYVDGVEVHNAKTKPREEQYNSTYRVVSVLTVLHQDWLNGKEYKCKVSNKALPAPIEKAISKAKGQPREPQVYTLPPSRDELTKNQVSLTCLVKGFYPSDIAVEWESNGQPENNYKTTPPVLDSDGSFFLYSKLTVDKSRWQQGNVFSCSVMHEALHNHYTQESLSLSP
light: B1 light
notes: homodimerized antibody, mutation in both H chains; also called T335_02A Ho Ab
B20: GpH7-B3 variant K334_16H/GpL16-k0 (antibody, human IgG1, kappa)
heavy: not shown
light: B1 light
notes: homodimerized antibody, mutation in both H chains; also called K334_16H Ho Ab
B21: GpH7-A5/GpH7-B3 variant K334_04F/GpL16-k0 (antibody, human IgG1, kappa)
heavy 1: not shown
heavy 2: not shown
light: B1 light
notes: heterodimerized antibody, mutation in one H chain only; also called K334_04F He Ab
B22: GpH7-B3 variant Y296_02A/GpL16-k0 (antibody, human IgG1, kappa)
heavy: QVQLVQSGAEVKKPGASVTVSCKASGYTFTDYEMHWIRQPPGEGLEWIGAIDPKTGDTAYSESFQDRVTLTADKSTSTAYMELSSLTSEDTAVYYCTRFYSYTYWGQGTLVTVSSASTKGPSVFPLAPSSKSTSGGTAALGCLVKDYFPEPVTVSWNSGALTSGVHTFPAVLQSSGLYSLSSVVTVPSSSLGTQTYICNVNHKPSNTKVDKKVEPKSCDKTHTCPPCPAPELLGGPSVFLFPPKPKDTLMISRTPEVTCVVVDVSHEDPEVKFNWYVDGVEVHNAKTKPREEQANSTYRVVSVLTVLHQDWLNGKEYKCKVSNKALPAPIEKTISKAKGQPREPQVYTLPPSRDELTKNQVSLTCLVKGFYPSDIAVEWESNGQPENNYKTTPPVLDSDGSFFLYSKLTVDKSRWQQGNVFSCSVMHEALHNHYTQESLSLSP
light: B1 light
notes: homodimerized antibody, mutation in both H chains; also called Y296_02A Ho Ab
B23: GpH7-A5/GpH7-B3 variant K334_09D/GpL16-k0 (antibody, human IgG1, kappa)
heavy 1: not shown
heavy 2: not shown
light: B1 light
notes: heterodimerized antibody, mutation in one H chain only; also called K334_09D He Ab
B24: GpH7-A5/GpH7-B3 variant K326_07I/GpL16-k0 (antibody, human IgG1, kappa)
heavy 1: not shown
heavy 2: not shown
light: B1 light
notes: heterodimerized antibody, mutation in one H chain only; also called K326_07I He Ab
B25: GpH7-A5/GpH7-B3 variant K334_07I/GpL16-k0 (antibody, human IgG1, kappa)
heavy 1: not shown
heavy 2: not shown
light: B1 light
notes: heterodimerized antibody, mutation in one H chain only; also called K334_07I He Ab
B26: GpH7-B3 variant Y300_07I/GpL16-k0 (antibody, human IgG1, kappa)
heavy: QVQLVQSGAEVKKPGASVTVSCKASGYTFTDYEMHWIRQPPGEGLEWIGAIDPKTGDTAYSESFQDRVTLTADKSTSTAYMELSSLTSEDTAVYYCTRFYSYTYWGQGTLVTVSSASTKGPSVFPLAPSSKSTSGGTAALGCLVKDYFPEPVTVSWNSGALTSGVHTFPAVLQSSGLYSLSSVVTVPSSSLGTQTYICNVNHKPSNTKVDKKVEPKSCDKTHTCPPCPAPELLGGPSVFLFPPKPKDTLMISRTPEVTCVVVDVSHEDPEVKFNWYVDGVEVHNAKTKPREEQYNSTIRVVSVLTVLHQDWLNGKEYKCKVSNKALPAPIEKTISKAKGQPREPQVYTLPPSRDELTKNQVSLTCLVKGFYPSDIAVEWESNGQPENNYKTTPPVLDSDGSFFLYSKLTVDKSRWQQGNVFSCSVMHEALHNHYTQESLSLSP
light: B1 light
notes: homodimerized antibody, mutation in both H chains; also called Y300_07I Ho Ab
B27: GpH7-A5/GpH7-B3 variant K326_09D/GpL16-k0 (antibody, human IgG1, kappa)
heavy 1: not shown
heavy 2: not shown
light: B1 light
notes: heterodimerized antibody, mutation in one H chain only; also called K326_09D He Ab
B28: GpH7-A5/GpH7-B3 variant K326_04F/GpL16-k0 (antibody, human IgG1, kappa)
heavy 1: not shown
heavy 2: not shown
light: B1 light
notes: heterodimerized antibody, mutation in one H chain only; also called K326_04F He Ab
B29: GpH7-A5/GpH7-B3 variant K326_03V/GpL16-k0 (antibody, human IgG1, kappa)
heavy 1: not shown
heavy 2: not shown
light: B1 light
notes: heterodimerized antibody, mutation in one H chain only; also called K326_03V He Ab
B30: GpH7-B3 variant Q295_10E/GpL16-k0 (antibody, human IgG1, kappa)
heavy: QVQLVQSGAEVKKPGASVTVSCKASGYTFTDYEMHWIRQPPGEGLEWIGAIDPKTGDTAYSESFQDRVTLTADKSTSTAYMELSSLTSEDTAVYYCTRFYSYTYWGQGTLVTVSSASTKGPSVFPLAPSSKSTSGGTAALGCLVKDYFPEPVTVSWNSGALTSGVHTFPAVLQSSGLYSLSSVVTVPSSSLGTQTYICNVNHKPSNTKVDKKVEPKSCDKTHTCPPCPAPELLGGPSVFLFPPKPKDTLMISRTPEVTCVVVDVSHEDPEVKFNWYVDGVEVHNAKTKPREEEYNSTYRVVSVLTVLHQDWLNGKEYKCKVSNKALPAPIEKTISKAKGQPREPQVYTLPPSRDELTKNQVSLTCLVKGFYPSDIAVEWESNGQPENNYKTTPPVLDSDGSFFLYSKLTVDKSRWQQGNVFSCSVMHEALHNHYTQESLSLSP
light: B1 light
notes: homodimerized antibody, mutation in both H chains; also called Q295_10E Ho Ab

Tests used:
[1] = biological target: T1, FcγRIa extracellular domain with C-terminal His tag (human, UniProt P12314 16-292); assay: SPR (Biacore), relative FcγRIa binding, GpH7-A5/GpH7-B3/GpL16-k0 (HeCon Ab) = 100
T1 construct: extracellular domain; soluble analyte in Biacore; also called FcgRI; CD64
T1 sequence (P12314 16-292): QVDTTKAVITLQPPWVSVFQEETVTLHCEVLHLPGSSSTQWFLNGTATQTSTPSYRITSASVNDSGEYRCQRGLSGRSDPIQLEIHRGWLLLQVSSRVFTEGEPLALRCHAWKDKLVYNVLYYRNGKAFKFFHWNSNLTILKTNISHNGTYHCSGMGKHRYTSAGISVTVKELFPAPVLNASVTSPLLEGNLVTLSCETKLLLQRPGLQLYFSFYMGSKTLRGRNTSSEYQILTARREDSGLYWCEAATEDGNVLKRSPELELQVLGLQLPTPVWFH

[2] = biological target: T1, FcγRIa extracellular domain with …; assay: SPR (Biacore), relative FcγRIa binding, GpH7-B3/GpL16-k0 (HoCon Ab) = 100

Binder | He/Con_1a [1] | Ho/Con_1a [2]
B1 | 106 % of control | 
B2 |  | 104 % of control
B3 |  | 106 % of control
B4 |  | 103 % of control
B5 |  | 107 % of control
B6 |  | 103 % of control
B7 |  | 106 % of control
B8 | 105 % of control | 
B9 |  | 111 % of control
B10 |  | 106 % of control
B11 |  | 105 % of control
B12 | 105 % of control | 
B13 | 103 % of control | 
B14 | 104 % of control | 
B15 |  | 108 % of control
B16 |  | 106 % of control
B17 | 100 % of control | 
B18 | 101 % of control | 
B19 |  | 105 % of control
B20 |  | 106 % of control
B21 | 105 % of control | 
B22 |  | 103 % of control
B23 | 106 % of control | 
B24 | 101 % of control | 
B25 | 104 % of control | 
B26 |  | 109 % of control
B27 | 103 % of control | 
B28 | 102 % of control | 
B29 | 102 % of control | 
B30 |  | 105 % of control
